From the supplement of paper PMC9732359 come the findings set out here.

± gives the uncertainty stated by the source.

A short description of the data set: protein stability index of a GFP-peptide fusion (yeast GPS) (PSI 1-4); higher = more stable; sorted into four equal gates, so the index is relative within each strain. A digest of the protocol: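 The protein stability index combines read frequencies across sorting gates, each weighted by its gate number and then summed. To obtain those frequencies, a pooled yeast library of GFP fusions to tiled 17-residue yeast protein peptides, on a plasmid also expressing Cherry, was grown to mid-log phase in leucine-free medium. The cells were sorted into four equal gates by GFP/Cherry ratio before plasmid amplification by PCR and Illumina sequencing.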

Take KTVKELRQLLKERYTVE [RRI1]: the protein stability index worked out at 2.74 ± 0.054 (doa10∆), 2.1 ± 0.062 (pdr5∆), 2.1 ± 0.066 (san1∆) and 3.06 ± 0.068 (ubr1∆).
For the sequence AVKLGDLKKFTSTITKY [RPN3], the protein stability index is, setting by setting: (doa10∆) 2.1 ± 0.056; (pdr5∆) 2.51 ± 0.044; (san1∆) 2.27 ± 0.066; (ubr1∆) 2.56 ± 0.035.
In the same order, the values of YFSNKTSTGIIRCHRED [POP5] are 2.98 ± 0.17, 2.68 ± 0.1, 2.62 ± 0.081 and 2.06 ± 0.059.
In the same order, the values of EGIEKMGVRTFSQKEMA [FAS2] are 2.96 ± 0.16, 2.73 ± 0.24, 2.88 ± 0.071 and 2.89 ± 0.061.
As to TKRESLNARMFLKYYGA [SIR2], the protein stability index was 2.98 ± 0.11 (doa10∆), 2.9 ± 0.098 (pdr5∆), 3.14 ± 0.11 (san1∆) and 2.6 ± 0.1 (ubr1∆).
For the sequence SCQIAQPYEDRPFEGLF [RRP45], the protein stability index came out at 3.33 ± 0.24 (doa10∆), 3.26 ± 0.095 (pdr5∆) and 3.15 ± 0.086 (san1∆).
Regarding DEEIIQLHFSLLDEEAE [RPO21], the protein stability index runs as follows: (doa10∆) 2.86 ± 0.078; (pdr5∆) 3.01 ± 0.09; (san1∆) 2.89 ± 0.083; (ubr1∆) 2.83 ± 0.23.
On the same counts, the results for YSYTTIVLSDQTQEFFL [YJL039C/NUP192] are 2.79 ± 0.077, 2.92 ± 0.068, 2.93 ± 0.081 and 2.82 ± 0.062.
Turning to VDLEEVMDTIQEQITLY [SSN8], the protein stability index (doa10∆) was found to be 3.33 ± 0.13, the protein stability index (pdr5∆) worked out at 3.18 ± 0.087, the protein stability index (san1∆) was determined as 3.16 ± 0.079 and the protein stability index (ubr1∆) was found to be 3.32 ± 0.08.
PKEVDGLEVGPVVQVGI [IRR1] displayed a protein stability index (doa10∆) of 3.38 ± 0.11, a protein stability index (pdr5∆) of 2.98 ± 0.088, a protein stability index (san1∆) of 3.37 ± 0.18 and a protein stability index (ubr1∆) of 3.23 ± 0.08.
For the sequence FLERFDFYTRHHFTCEI [ITC1], the protein stability index (pdr5∆) was 2.26 ± 0.097, the protein stability index (san1∆) worked out at 2.31 ± 0.16 and the protein stability index (ubr1∆) came out at 2.61 ± 0.11.
For the sequence TVTDDARIFEFPKTTVA [RPL18A], the protein stability index reads like this: (doa10∆) 2.68 ± 0.056; (pdr5∆) 2.7 ± 0.048; (san1∆) 2.7 ± 0.061; (ubr1∆) 2.42 ± 0.057.
Take TKTPGPGGQAALRALAR [RPS14A]: the protein stability index by setting is: (doa10∆) 2.64 ± 0.042; (pdr5∆) 2.27 ± 0.031; (san1∆) 2.39 ± 0.042; (ubr1∆) 2.3 ± 0.029.
With ESWANQLTVCGAIIGWT [FAS2], the protein stability index reads like this: (doa10∆) 1.13 ± 0.041; (pdr5∆) 1.3 ± 0.038; (san1∆) 1.2 ± 0.088; (ubr1∆) 1.44 ± 0.037.
In the same order, the values of FVWLSSEENIGSGLLKL [SWI1] are 3.3 ± 0.098, 3.19 ± 0.09, 3.28 ± 0.067 and 3.38 ± 0.068.
In the case of NFKMLVLLATWNLEKWR [IRR1], the protein stability index (doa10∆) was 1.32 ± 0.053, the protein stability index (pdr5∆) turned out to be 1.3 ± 0.071, the protein stability index (san1∆) is 1.5 ± 0.12 and the protein stability index (ubr1∆) is 1.56 ± 0.038.
Consider IKIVSDKKVLVKVQPEG [RPT6], for which the protein stability index is, setting by setting: (doa10∆) 2.75 ± 0.1; (pdr5∆) 2.83 ± 0.09; (san1∆) 2.85 ± 0.12; (ubr1∆) 2.74 ± 0.07.
With SKLEGTINKAVQVKVLG [ESC2], the protein stability index reads like this: (doa10∆) 1.57 ± 0.11; (pdr5∆) 1.93 ± 0.12; (san1∆) 1.66 ± 0.21; (ubr1∆) 1.75 ± 0.086.
As for KVSYAVKKPQKSKTSTG [SNM1], the protein stability index (doa10∆) amounted to 2.85 ± 0.1, the protein stability index (pdr5∆) stood at 3.15 ± 0.13, the protein stability index (san1∆) amounted to 2.66 ± 0.12 and the protein stability index (ubr1∆) came to 3.24 ± 0.079.
In the same order, the values of DYLKNIIVENSGTSGDE [RPN2] are 3.43 ± 0.21, 3.48 ± 0.15, 3.14 ± 0.057 and 3.29 ± 0.1.
DENKDDELVKLLLDNGF [SRP68] registered a protein stability index (doa10∆) of 3.05 ± 0.11, a protein stability index (pdr5∆) of 3.4 ± 0.086, a protein stability index (san1∆) of 3.36 ± 0.12 and a protein stability index (ubr1∆) of 3.31 ± 0.094.
On to HWLQLAKGVYRPNGRKD [POP1], for which the protein stability index runs as follows: (doa10∆) 2.68 ± 0.06; (pdr5∆) 3.12 ± 0.049; (san1∆) 3.2 ± 0.034; (ubr1∆) 3.15 ± 0.049.
In the case of LRIELQSVYNDEKLKTE [SRB8], the protein stability index is, setting by setting: (doa10∆) 3.17 ± 0.22; (pdr5∆) 3.23 ± 0.24; (san1∆) 3.26 ± 0.12.
DLPDTEGLELLGWIHTQ [PRP8] displayed a protein stability index (doa10∆) of 2.75 ± 0.093, a protein stability index (pdr5∆) of 2.79 ± 0.085, a protein stability index (san1∆) of 3.22 ± 0.051 and a protein stability index (ubr1∆) of 3.27 ± 0.045.
